The text below walks through data of patent EP3061768A1 (dated 2016).

One assay addresses T1, neutravidin (UniProt P02701 25-152).
T1 construct: Control wells without biotinylated IL-1 Beta
Kind of assay: phage ELISA, crude phage extract, anti-M13-HRP. Background: ELISA stands for enzyme-linked immunosorbent assay.

The target in assay [1] is human IL-1 Beta (human) (UniProt P01584). The assay is described as follows: competition ELISA, periplasmic extract; competitor: coated mouse mAb (Diaclone); reduced signal means competition.
The target is the same in assay [2]. Kind of assay: ELISA based competition assay; competitor: antagonistic reference mouse mAb (Diaclone).
Assay [3] has the same target. Kind of assay: cell-based or functional assay.

Residue numbers refer to the chain shown, from its start.

In general, IC50 refers to the concentration at which inhibition is half-maximal. A lower IC50 goes with greater potency.

T1 sequence (P02701 25-152): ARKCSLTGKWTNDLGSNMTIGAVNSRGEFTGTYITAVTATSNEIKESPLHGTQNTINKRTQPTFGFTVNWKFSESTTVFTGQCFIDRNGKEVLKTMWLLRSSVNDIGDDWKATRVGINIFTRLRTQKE
Chain of human IL-1 Beta (human) (P01584 117-269 limits assumed): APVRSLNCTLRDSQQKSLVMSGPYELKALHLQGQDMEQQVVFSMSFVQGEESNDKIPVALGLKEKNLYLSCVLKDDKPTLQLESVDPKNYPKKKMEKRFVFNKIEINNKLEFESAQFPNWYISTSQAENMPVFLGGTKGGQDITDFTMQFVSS

B1: wt 1E2 gene3-Fab fusion on phage (Fab, V domains shown)
VH: EVQLVESGGGLVQPGGSLRLSCTASGFTFSNYWMYWVRQAPGKGLEWVSAINAAGSTYYADSVKGRFTISRDNAKNTLYLQMNSLQSEDTALYYCANLPRWGQGTQVTVSS
VL: QTVVTQEPSLSVSPGGTVTLTCGLSSGSVTSGNYPGWYQQKPGQAPRTLIYNTNSRYSGVPNRFSGSISGNKAALTITGAQPEDEADYYCAVYIGSSSYPVVFGGGTHLTVLG
notes: crude phage extract; also called wt 1E2 (phage)
Regarding B1, in the assay with neutravidin, the binding result is given as “no binding”.

B2: hum 1E2 gene3-Fab fusion on phage (Fab, V domains shown)
VH: B1 VH with T23A, A74S, Q86R, S87A, L92V, Q106L
VL: B1 VL with L10F, K41T, Y57S, N62D, S69L, P82A, E83D, A86S, H108K
notes: also called fully humanized 1E2
Take B2: the binding result with neutravidin is given as “no binding”.

B3: safe variant 1E2 gene3-Fab fusion on phage (Fab, V domains shown)
VH: B1 VH with T23A, A74S, L92V
VL: B1 VL with L10F, Y57S, N62D, S69L, E83D, A86S
notes: The text says 'partially humanized V lambda fused to human C lambda and CH1'; also called safe 1E2
B3: the binding result in the assay with neutravidin is reported as “no binding”.

B4: Fab 1C3 (Fab, part only; not given: lambda light chain, V domains shown, not shown: a dimerising Fc or GST)
VH: EVQLVESGGGLVQPGGSLRLSCAASGFTFSSYWMYWVRQAPGKGLEWVSAINTGGGRTYYADSVKGRFTISRDNAKNTLYLQMNSLKSEDTAVYYCAKGTSADGSSWYVPADPYDYWGQGTQVTVSS
In the assay with human IL-1 Beta (human) [1], B4 gave an OD signal in the competition assay of 0.386 OD. For the same molecule, in the assay with human IL-1 Beta (human) [2], the concentration at which competition is seen is over 50 µg/mL. In the assay with human IL-1 Beta (human) [3], this molecule registered an IC50 in the bioassay of 3 µg/mL.

B5: Fab 1B3 (Fab, part only; not given: lambda light chain, V domains shown, not shown: a dimerising Fc or GST)
VH: EVQLVQSGAELRNPGASVKVSCKASGYTFTSYYIDWVRQAPGQGLEWMGRIDPEDGGTKYAQKFQGRVTFTADTSTSTAYVELSSLRSEDTAVYYCARSGRYELDYWGQGTQVTVSS
B5 gave an OD signal in the competition assay in the assay with human IL-1 Beta (human) [1] of 0.444 OD.

B6: Fab 1G1 (Fab, part only; not given: light chain, V domains shown, part only)
VH: B5 VH with I34T, G57D, S84T, A97L, R101A
Consider B6, for which, in the assay with human IL-1 Beta (human) [1], the OD signal in the competition assay is 0.498 OD.

B7: Fab 1A1 (Fab, part only; not given: lambda light chain, V domains shown, not shown: a dimerising Fc or GST)
VH: EVQLVESGGGLVQPGGSLRLSCAASGFTFDDYAMSWVRQAPGKGLEWVSTISWNGGATYYAESMKGRFTISRDNAKNTLYLQMNSLKSEDTAVYYCAKPYYSDYVGVEYDYWGQGTQVTVSS
B7 yielded an OD signal in the competition assay with human IL-1 Beta (human) [1] of 0.205 OD. Besides, in the assay with human IL-1 Beta (human) [2], the IC50 is 12 µg/mL. Besides, the IC50 in the bioassay with human IL-1 Beta (human) [3] worked out at 10 µg/mL.

B8: wt 1F2 gene3-Fab fusion on phage (Fab, V domains shown)
VH: EVQLVESGGGLVQPGGSLRLSCAASGFTFSTYAMSWVRQAPGKGPEWVSGINTGGGSTGYADSVKGRFTISRDNAKNTLYLQMNSLKPEDTAVYYCAKDWMATTPWGQGTQVTVSS
VL: QAVVTQEPSLSVSPGGTVTLTCGLSSGSVTTNNYPGWFQQTPGQAPRTLIYNTNNRHSGVPSRFSGSISGNKAALTITGAQPEDEADYYCALYMSSGSNNAVFGGGTHLTVLG
With B8, the binding result with neutravidin was “no binding”.

B9: safe variant 1F2 gene3-Fab fusion on phage (Fab, V domains shown)
VH: B8 VH with V5L, A75S, K87R
VL: B8 VL with A2T, L10F, S69L, P82A, E83D, A86S, H108K
notes: The text says 'partially humanized V lambda fused to human C lambda and CH1'; the result sentence speaks of back mutations in both VL and VH, so the safe VH is used; also called safe 1F2; partially humanized 1F2
B9: the binding result with neutravidin is “no binding”.

B10: hum 1F2 gene3-Fab fusion on phage (Fab, V domains shown)
VH: B8 VH with V5L, P45L, A75S, K87R, P88A, Q111L
VL: B8 VL with A2T, L10F, F38Y, H57S, S62D, S69L, P82A, E83D, A86S, H108K
notes: also called fully humanized 1F2
As for B10, the binding result with neutravidin is given as “no binding”.
